{"source": "patent US20060079453A1", "note": "“And” between values parts separate entries of the source, which are not always exact repeats. Identical values can stand only once.", "data": [{"target": "HLA-A*2902 (human)", "assay": "competition, purified HLA", "details": "not given", "units": {"IC50": "µM"}, "values": [{"binder": "RWGLLLALL (modifications not checked)", "IC50": 61.3}, {"binder": "YTGPGPGVY (modifications not checked)", "IC50": 2.02}, {"binder": "KYTSFPWL (modifications not checked)", "IC50": "> 172"}, {"binder": "TLEKITNTELY (modifications not checked)", "IC50": 8.4}, {"binder": "EYRHYNYSLY (modifications not checked)", "IC50": 0.956}, {"binder": "TQDLVQEKY (modifications not checked)", "IC50": 33.3}, {"binder": "EVDGPGPGY (modifications not checked)", "IC50": 25.8}, {"binder": "RSDGPGPGVLY (modifications not checked)", "IC50": 13.2}, {"binder": "TQDGPGPGY (modifications not checked)", "IC50": 37.1}, {"binder": "RSDSVGPGPGY (modifications not checked)", "IC50": 31.2}, {"binder": "PTLKEYVLDLY (modifications not checked)", "IC50": 0.805}, {"binder": "TQGPGPGKY (modifications not checked)", "IC50": 36.7}, {"binder": "AYGPGPGKF (modifications not checked)", "IC50": 44.9}, {"binder": "RQAKQHTCY (modifications not checked)", "IC50": 155}, {"binder": "FTDLRIVY (modifications not checked)", "IC50": 0.813}]}, {"target": "HLA-A*2902 (human)", "assay": "competition, purified HLA", "details": "remark: other sources report otherwise", "units": {"IC50": "µM"}, "values": [{"binder": "WFHISCLTF (modifications not checked)", "IC50": 0.095}, {"binder": "TLEKLTNTGLY (modifications not checked)", "IC50": 0.991}]}, {"target": "HLA-A*3002 (human)", "assay": "competition, purified HLA", "details": "not given", "units": {"IC50": "µM"}, "values": [{"binder": "RWGLLLALL (modifications not checked)", "IC50": 0.3}, {"binder": "YTGPGPGVY (modifications not checked)", "IC50": 0.0064}, {"binder": "IYGPGPGLIF (modifications not checked)", "IC50": 6.84}, {"binder": "RISGVDRYY (modifications not checked)", "IC50": 0.003}, {"binder": "RVLPPNWKY (modifications not checked)", "IC50": 0.003}, {"binder": "AYSSWMYSY (modifications not checked)", "IC50": 0.0049}, {"binder": "EVDGPGPGY (modifications not checked)", "IC50": 5.77}, {"binder": "TQDGPGPGY (modifications not checked)", "IC50": 0.541}, {"binder": "IMVLSFLF (modifications not checked)", "IC50": 30}, {"binder": "FTDLTIVY (modifications not checked)", "IC50": 39}, {"binder": "FTDLRIVY (modifications not checked)", "IC50": 8.06}, {"binder": "RQDILDLWVY (modifications not checked)", "IC50": 0.095}]}, {"target": "HLA-A*3002 (human)", "assay": "competition, purified HLA", "details": "remark: other sources report otherwise", "units": {"IC50": "µM"}, "values": [{"binder": "WFHISCLTF (modifications not checked)", "IC50": 75.1}]}, {"target": "HLA-A*0101 (human)", "assay": "competition, purified HLA", "details": "not given", "values": [{"binder": "RFLSKISEY (modifications not checked)", "IC50": "> 40.3 µM"}, {"binder": "EYRHYNYSLY (modifications not checked)", "IC50": "111 µM"}, {"binder": "EVGPGPGLY (modifications not checked)", "IC50": "0.05 µM"}, {"binder": "ISEYRHYQY (modifications not checked)", "IC50": "0.04 µM"}, {"binder": "KTLYQSNPY (modifications not checked)", "IC50": "6.91 µM"}, {"binder": "FTDLTIVY (modifications not checked)", "IC50": "0.016 µM and 0.034 µM"}, {"binder": "RQAKQHTCY (modifications not checked)", "IC50": "> 135 µM"}, {"binder": "ATSNYYIVTY (modifications not checked)", "IC50": "0.428 µM"}, {"binder": "YTAGPGPGY (modifications not checked)", "IC50": "0.007 µM"}, {"binder": "FTDLRIVY (modifications not checked)", "IC50": "0.026 µM"}, {"binder": "AADAAAAKY (modifications not checked)", "IC50": "0.02 µM"}, {"binder": "RQDILDLWVY (modifications not checked)", "IC50": "9 µM"}]}, {"target": "HLA-A*0101 (human)", "assay": "competition, purified HLA", "details": "remark: other sources report otherwise", "units": {"IC50": "µM"}, "values": [{"binder": "WFHISCLTF (modifications not checked)", "IC50": 85.3}, {"binder": "ALFQEYQCY (modifications not checked)", "IC50": "> 42"}, {"binder": "TLEKLTNTGLY (modifications not checked)", "IC50": 0.077}]}]}
